This is an account of results in publication doi:10.1101/2025.08.27.672506.

The target of assay [1] is wild-type ectodomain of HA from /turkey/Ontario/6118/1968 (H8N4) (influenza A virus /turkey/Ontario/6118/1968 (H8N4)). Nature of the assay: SEC. On the technique in general: Size exclusion chromatography separates by hydrodynamic size, large species first.
The target in assay [2] is wild-type H1/Cal09 HA ectodomain with the Foldon trimerization tag (influenza A virus A/California/04/2009 (H1N1) | T4). Nature of the assay: SEC.
Assay [3] has the same target. As to the kind of experiment: cryo-EM 2D classification.
For assay [4], the target named is wild-type ectodomain of HA from A/swine/Hong Kong/2106/98 (H9N2) (influenza A virus A/swine/Hong Kong/2106/98 (H9N2)). As to the kind of experiment: SEC.
Assay [5] addresses wild-type ectodomain of HA from A/gull/Maryland/704/1977 (H13N6) (influenza A virus A/gull/Maryland/704/1977 (H13N6)). As to the kind of experiment: SEC.
Assay [6] concerns the target wild-type H1/Mal07 HA ectodomain with the Foldon tag (influenza A virus A/Malaysia/1706215/2007 (H1N1) | T4). Nature of the assay: SEC.
Assay [7] deals with wild-type H9/HK98 HA ectodomain with the Foldon tag (influenza A virus A/swine/Hong Kong/2106/98 (H9N2) | T4). Nature of the assay: SEC.

Usually stoichiometry N stands for a count of units in the complex or per binding partner. As to “wild-type ectodomain of HA from /turkey/Ontario/6118/1968 (H8N4) (domain or fragment)”, in assay [1], the stoichiometry N turned out to be 3.

Regarding “wild-type H1/Cal09 HA ectodomain with the Foldon trimerization tag”, the stoichiometry N in assay [2] and in assay [3] was 3 each time. Substance “wild-type ectodomain of HA from A/swine/Hong Kong/2106/98 (H9N2) (domain or fragment)” registered a stoichiometry N in assay [4] of 3. “wild-type ectodomain of HA from A/gull/Maryland/704/1977 (H13N6) (domain or fragment)”: the stoichiometry N in assay [5] came to 3. “wild-type H1/Mal07 HA ectodomain with the Foldon tag” displayed a stoichiometry N in assay [6] of 3. In assay [7], “wild-type H9/HK98 HA ectodomain with the Foldon tag” registered a stoichiometry N of 3.
